Measurements published in the supplement of paper PMC9170038.

test system: MS2 coat protein; assay: apparent KD of MS2 coat protein, switch ON state; designed switch direction (-1 OFF switch, 1 ON switch): -1; higher = weaker reporter binding; details: FMN input: 0 or 200 uM; Eterna round: R93 (includes R88 designs)
In short: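 Designed RNA switches were transcribed on-chip from Illumina sequencing clusters and titrated with SNAP-549-labelled MS2 coat protein in twofold steps from 0.7 or 1.5 nM up to 3 µM. Each step lasted 0.8–1.5 h at first and 10–20 min by the end, in 100 mM Tris-HCl pH 7.5, 80 mM KCl and 4 mM MgCl2, without or with constant ligand. Apparent KD is the median, for each design, of fits to normalised cluster binding curves.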

| Sequence | apparent KD of MS2 coat protein |
| --- | --- |
| GAAAAGUCAGGAUAUAUGCGAAAAAUAAAAAAAAUAAAAACAUAGAAGGGACAUGAGGAUCACCCAUGUUAAAG [Mat - Exclusion 4 - Mayanna - D135] | 37.7 nM |
| AAGAAGGUAGGAUAUACUAGGGAAACUAAUGCAAAGAUAAAACAUGAGGAUCACCCAUGUAGAAGGGCCAGAAA [JR_Exc002_Sub017] | 40.8 nM |
| AACAGUACAGGAUAUACAUGAGGAUCACCCAUGUGAUUAUCAAGUGCCGUAGCACGAAGUAGAAGGGUACUGGA | 60.3 nM |
| AGCUAGUCAGGAUAUACAUGAAAAAAAAAAAAAAAAAAAAAACAUGAGGAUCACCCAUGUAGAAGGGACUAGCA [Starry Esclusion 2 (jandersonlee round 1 mod)] | 95.6 nM |
| AUGAGAGCAGGAUAUGCAGGUGUGCCGGAAGAAAGAAGAAGACAUGAGGAUCACCCAUGUAGAAGGGCUAGCCC [Bibidi] | 30 nM |
| AUAAAGUCAGGAUAUGUAAGAAUAACGAAAGUUAUAAAGAAACAGAAGGGACAUGAGGAUCACCCAUGUAAAAU [Ex 4 #3] | 43.1 nM |
| AAAGGACGAGGAUAUACAUGAGGAUCACCCAUGUAAAAAACAUAAUAAAAGAAUUUAUGUAGAAGGCGUCCAAA [69%, Moding Meechl, 1] | 18.1 nM |
| AACAGUACAGGAUAUACAUGAGGAUCACCCAUGUCACAACAAAGCAGCGUAACACAAAGUAGAAGGGUAAUGGA [Ruby 16] | 48.6 nM |
| AGGAAACAUGAGGAUCACCCAUGUAAGGAUAUGUGAAAGAAAAGAAAAGAAAGAAGAAGCAGAAGGUACAAGAA [Anedjib] | 34.9 nM |
| AAAAAACAUGAGGAUCACCCAUGUAAGGAUAUGCUGAAAAACACGGAAAAAACGUGCAGCAGAAGGUACAAAAG [Mat - Exclusion 1 - Eli mod - D90] | 16.1 nM |
| AAGAAGCAAGGAUAUACAAAAUAAAAGAAAAGAAAGAAAGAACAUGAGGAUCACCCAUGUAGAAGGUGCAAGAA [Djedkheperew] | 31.1 nM |
| CAAAGGUGAGGAUAUACAUAACUAUGACGAAAGUCAUAAAAACAUGAGGAUCACCCAUGUAGAAGGCACCACAA [E2 64% 1] | 38.1 nM |
| AAAAAGAGAGGAUAUACAGGAGGACCACCACAAAAAAAAAUACAUGAGGAUCACCCAUGUAGAAGGCUCAAAAA [Default title] | 35.1 nM |
| AAAAAGGGAGGAUAUACAUGAGGAUCACCCAUGUAAAAAAAAAAAAAAAAAAGGGAAGGUAGAAGGCCCAAAAA [Excls3-I] | 64.6 nM |
| AACUAGCUAGGAUAUACAUGAGGAUCACCCAUGUAAAAAAAAAAAAAAAAAUUUUUAUGUAGAAGGAGCUAGUA [Design 1 - Brourd - Exclusion 3] | 27.9 nM |
| AAAAACGUAGGAUAUACAUGAGGAUCACCCAUGUAAAAAAAAAAGGGAGAAAAAAGAAGUAGAAGGACGAAAAA [JR_Exc003_Sub002] | 32.4 nM |
| AAACAUGGAGGAUAUACAUGAGGAUCACCCAUGUGUAUGAAAAAAUAUACAAAAGAAUGUAGAAGGCCAUGAAA [Mat - Exclusion 3 - Mayanna mod - D102] | 26.9 nM |
| ACCGAUCGAGGAUAUACAUGAGGAUCACCCAUGUAAAGCAGAAGAAAGGCCUCAGGAUGUAGAAGGCGACGCAA [JR_Exc003_Sub405] | 20.1 nM |
| GAUCCACAUGAGGAUCACCCAUGUAAGGAUAUUUAAAACCGGAGACAACCCUCCGAAGAAAGAAGGUACAAAAC [Ququraes] | 13 nM |
| AAAAAACAUGAGGAUCACCCAUGUGAGGAUAUCUAAAACAAAACAAAAACAAAACAAAGGAGAAGGUAUAUGAA [Amethyst 67] | 19 nM |
| AGAUGACAAGGAUAUACUAGGGAUGCUAGUCGAGAAGAAGAACAUGAGGAUCACCCAUGUAGAAGGUGUAAGAA [JR_Exc002_Sub1703] | 35.4 nM |
| AAAAAUCGAGGAUAUACAUGAGGAUCACCCAUGUCAGAAAAUGACUACACAAAAGAAAGUAGAAGGCGAUAAAG [Mat - Exclusion 3 - Mayanna mod - D131] | 32 nM |
| AAGAAACAUGAGGAUCACCCAUGUCAGGAUAUUGAAGAAAGAAAGAAAGAAAGAAGAACAAGAAGGGACAAAGG [Gaius Vitrasius Pollio] | 44.3 nM |

| Sequence | apparent KD of MS2 coat protein |
| --- | --- |
| AAAAAACAUGAGGAUCACCCAUGUGAGGAUAUUGGUAUUCAGGAUAUAAUCUCAAUAGCGAGAAGGCGCAUAAA [Brourd 613 Mod 16 - Jieux - Exclusion 1] | 20.9 nM |
| AAAAAUUGAGGAUAUACGUACAUGUCAAAAGACGUGAAGGGACAUGAGGAUCACCCAUGUAGAAGGCGAAAAAA [JL Neck Breaker 12] | 38.8 nM |
| AACAUGUUAGGAUAUGAAAGAAAAGAAAAGAAAGAAAAGAAUCAGAAGGAACAUGAGGAUCACCCAUGUAAGAA [EteRNA is fun!] | 25.6 nM |
| AAGGGACAUGAGGAUCACCCAUGUCAGGAUAUCGGAAAAGGAAAAAUAAAAAAGAAGACGAGAAGGGACACCAA [Mat - Exclusion 1 - Eli mod - D77] | 38.4 nM |
| AAGAAAGGAGGAUAUACAUGAGGAUCACCCAUGUAAAAGAAAGAGGGAAAAGAGAAAAGUAGAAGGCCUAAGAA [Ptolemy IX Soter II] | 30.8 nM |
| AAAAAUCUAGGAUAUACAUGAGGAUCACCCAUGUAAGAAAAUGAUUACACAAAAGAAAGUAGAAGGAGAUAAAA [Ex 3 May 19] | 17.4 nM |
| GUGUACAGAGGAUAUACAUGAGCUAGGAAACUAGCAAGAUCACAUGAGGAUCACCCAUGUAGAAGGCUGUACAC [Ex2: 734] | 70 nM |
| AGCUGGAGAGGAUAUACGUAGGAAAAAAAAGUCUGAUCCCUACAUGAGGAUCACCCAUGUAGAAGGCUCUGGCA [Ex2 Design 161: Sub-opt 25] | 63.5 nM |
| AUAGUACAUGAGGAUCACCCAUGUCAGGAUAUCGGAUGUGACAUGAAAAAAAUGUUAGUGAGAAGGGACUAUAA [EX1 Malc#18 Mod 3 - Jieux - Exclusion 1] | 66.9 nM |
| AAAUAGCAAGGAUAUACAUGAGGAUCACCCAUGUGAACAAGGUAUGGAAUAGAAUAGAGUAGAAGGUGCAAAUA [Mod 2 of Ex 3 Tesla 8 - Jieux - Exclusion 3] | 31.3 nM |
| UUUAUGUGAGGAUAUCAGUAGUAAAAAAAUAAAAUUACUACUGAGAAGGCACAUGAGGAUCACCCAUGUGAAAA [EX4 340: Super Stable 40] | 61.9 nM |
| AACAAACAUGAGGAUCACCCAUGUCAGGAUAUGCACAAACAAACAAACAAACAAGCAAGCAGAAGGGACACAAC [Amethyst 89] | 13.7 nM |
| CAAAGUGGAGGAUAUACAUGAGGAUCACCCAUGUAAGGACAAUAAAUAAGAAGAAGAAGUAGAAGGCCACUCAA [e3-2] | 28.9 nM |
| AACGCACAUGAGGAUCACCCAUGUCAGGAUAUCGUGGCGGGAAAAACCGGGAAACGCACGAGAAGGGACAAAAA [EX1 Malc#18 Mod 14 - Jieux - Exclusion 1] | 47.6 nM |
| AAGAAACAUGAGGAUCACCCAUGUCAGGAUAUGCAAGACUGACGAAAGUCAGUCAAAAGCAGAAGGGACUAGAA [7-pair stack] | 28 nM |
| AGGGAGUGAGGAUAUACGAAAAAAAAACAACGAAAAAAAGAGUAGAAGGCACAUGAGGAUCACCCAUGUAAGAA [milkweed 14] | 44.5 nM |
| AACACACAUGAGGAUCACCCAUGUAAGGAUAUGCGAGCAAGAAGAAAGAACAGAAAAAGCAGAAGGUACACACA [Amethyst 75] | 29.6 nM |
| AAUAAGAGAGGAUAUACUAAAGAAAUGAAAAGAAAUAAAGAACAUGAGGAUCACCCAUGUAGAAGGCUCAAUAA [Bebnum] | 24.4 nM |
| GGAAAACAUGAGGAUCACCCAUGUGAGGAUAUCGAUGUCCAAUAAAAAGUGCGGGACUCGAGAAGGCACUUGGA [salish99-ex1-41] | 36.2 nM |
| AAAAAGUGAGGAUAUGCGAAGGCGUCUGAUAGACGAGGCUAGCAGAAGGCACAUGAGGAUCACCCAUGUGGGAA [Mat - Mod of Nando 64% 3] | 53.8 nM |
| AAAACGGCAGGAUAUACGAUUGGGAACUAGACCGAGGAACCACAUGAGGAUCACCCAUGUAGAAGGGCCAAAAA [Ex2 Malc#15] | 24.2 nM |
| AAAAAGGAAGGAUAUACGAACAUGUCAAAAGACGUGAAGGGACAUGAGGAUCACCCAUGUAGAAGGUUUAAAAA [JL Wide Open 25] | 39.3 nM |
